Test results as given in publication PMC5113203.

Target: human lysyl-tRNA synthetase anticodon-binding domain (hLysRS ACB) (Homo sapiens, UniProt Q15046 91-216)
Experiment: fluorescence anisotropy

human lysyl-tRNA synthetase anticodon-binding domain (hLysRS ACB), sequence (Q15046 91-216): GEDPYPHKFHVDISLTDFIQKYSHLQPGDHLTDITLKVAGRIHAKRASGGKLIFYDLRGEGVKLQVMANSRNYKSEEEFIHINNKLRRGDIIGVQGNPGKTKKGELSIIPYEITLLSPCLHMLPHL

Binder: CCCCCCCCC (ssRNA) [C9]
- binding signal: ~100 fold lower affinity than U9
